The term EC50 denotes the midpoint of the concentration-response curve. A higher EC50 goes with a need for much substance. By Kd is commonly meant the constant that tells how readily two partners part at equilibrium. Low readings indicate tighter binding, high ones weaker binding.

Data on three substances can be found in patent US7232659.

The target of test [1] is FPR-GFP fusion protein (human; Aequorea victoria) (UniProt P21462). As to the kind of experiment: flow cytometry, LRG assembly of 30 nM FPR-GFP on αβγ DCNi beads, ligand varied (FIG. 13B); exponent printed as 10^6, read as 10^-6. For orientation: Flow cytometry measures light scatter and fluorescence of single cells or particles in a stream.
The target of test [2] is β2-adrenergic receptor-green fluorescent protein fusion protein (β2AR-GFP) (human; Aequorea victoria) (UniProt P07550). As to the kind of experiment: flow cytometry, soluble Gαsβ1γ2 competing with bead-borne Gαsβ1γ2 for isoproterenol-bound β2AR-GFP (FIG. 4E).
The target of test [3] is hexahistidine-tagged G protein heterotrimer Gαsβ1γ2 (human) (UniProt P63092). As to the kind of experiment: flow cytometry, ARG assembly of 20 nM β2AR-GFP on Gαsβ1γ2 Ni beads, receptor occupied by dobutamine (FIG. 5B).
Chain of hexahistidine-tagged G protein heterotrimer Gαsβ1γ2 (human) (P63092 other isoform, or with tags, fused parts or gaps, chain 1 of 3): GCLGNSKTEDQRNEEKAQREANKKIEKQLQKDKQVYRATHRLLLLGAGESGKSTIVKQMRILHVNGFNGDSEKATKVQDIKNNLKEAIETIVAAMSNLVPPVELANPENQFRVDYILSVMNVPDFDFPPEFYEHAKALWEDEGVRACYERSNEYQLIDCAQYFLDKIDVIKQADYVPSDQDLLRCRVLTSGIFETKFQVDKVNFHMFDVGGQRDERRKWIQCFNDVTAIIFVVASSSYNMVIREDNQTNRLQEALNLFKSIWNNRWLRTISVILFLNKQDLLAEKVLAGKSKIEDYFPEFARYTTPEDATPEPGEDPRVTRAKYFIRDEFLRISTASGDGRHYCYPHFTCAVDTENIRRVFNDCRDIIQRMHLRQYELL
Chain of hexahistidine-tagged G protein heterotrimer Gαsβ1γ2 (human) (P62873 2-340, chain 2 of 3, further chain): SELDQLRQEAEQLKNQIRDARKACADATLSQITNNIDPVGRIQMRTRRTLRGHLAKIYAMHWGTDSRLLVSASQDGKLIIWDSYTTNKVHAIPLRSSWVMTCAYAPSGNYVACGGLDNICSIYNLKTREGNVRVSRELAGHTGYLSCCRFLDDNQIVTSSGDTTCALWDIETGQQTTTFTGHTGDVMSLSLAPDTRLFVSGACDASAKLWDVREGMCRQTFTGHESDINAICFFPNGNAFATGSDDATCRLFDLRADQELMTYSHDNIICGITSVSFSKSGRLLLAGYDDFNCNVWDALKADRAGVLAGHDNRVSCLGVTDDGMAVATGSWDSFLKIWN
Chain of hexahistidine-tagged G protein heterotrimer Gαsβ1γ2 (human) (P59768 other isoform, or with tags, fused parts or gaps, chain 3 of 3, further chain): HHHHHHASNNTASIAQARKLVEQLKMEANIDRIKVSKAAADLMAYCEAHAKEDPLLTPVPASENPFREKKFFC
Test [4] has the same target. As to the kind of experiment: flow cytometry, ARG assembly of 20 nM β2AR-GFP on Gαsβ1γ2 Ni beads, receptor occupied by salbutamol (FIG. 5B).
Test [5] shares this target. As to the kind of experiment: flow cytometry, Gαsβ1γ2 on Ni beads, 40 nM β2AR-GFP with 1 mM isoproterenol; background with 0.1 mM GTPγS about 10,000 β2AR-GFP/bead.

In test [1], fML (peptide) came in with an EC50 of 5.3 µM.
In test [2], “hexahistidine-tagged G protein heterotrimer Gαsβ1γ2 (from UniProt P63092 2-380; P62873 2-340; P59768 2-68)” gave a Kd of 0.09 to 0.11 µM.
For “β2-adrenergic receptor-green fluorescent protein fusion protein (β2AR-GFP) (from UniProt P07550 1-413; P42212 1-238)”, the ARG/bead level against the full agonist isoproterenol is 10 percent in test [3] and 30 percent in test [4]. The substance also showed a total fluorescence, β2AR-GFP/bead (β2AR-GFP/bead) in test [5] of 80000.
